Data on 7 molecules can be found in patent publication US7847064B2, “Methods and compositions for regulating gene expression in plant cells” (Donald Danforth Plant Science Center, priority 2004, dated 2010).

Data set [1] relates to non-transgenic BY-2 protoplasts. The data set can be described thus: GUS activity of Box II/CaMV 35S chimeric promoters in non-transgenic BY-2 protoplasts. The class given is cell-based, tobacco. To be noted: for stimulation of gene expression versus the construct without Box II: Box II at 7 nucleotides from the TATA box plus multiples of 0.5 turns of DNA helix; for increase in expression level above the construct without Box II: versus p-48CaMV and p-90CaMV respectively, normalized against GFP. The text has this:
Specifically, the Box II element was fused to the 5′ end of the chimeric promoters with a space of 7 nucleotides from the TATA box plus 1, 1.5, 3.0, 3.5, 5.0 and 5.5 “turns of DNA helix” (one turn=10.4 base pairs). The chimeric promoters were then inserted into a cassette with the uidA coding sequencing and Nos terminator.
Construction of Plasmids Comprising the Box II Element and Different Lengths of the CaMV 35S Promoter—To construct Box II and CaMV 35S chimeric promoters, the Box II element was introduced into CaMV 35S promoter sequences of different lengths through PCR reactions using Pfu DNA polymerase (Stratagen Systems, Kirkland, Wis.). Forward primers for the PCR reactions were designed to have a HindIII restriction site, followed by the Box II sequence, which was followed by part of the 5′ CaMV promoter at desired positions (see FIG. 12 and Table 2 for specific primer sequences). The GUS 3′ primer (SEQ ID NO:36) was used as reverse primer for all reactions.
The p35S:GUS plasmid was used as template in the foregoing reactions. In the p35S:GUS plasmid, a NcoI restriction site was located between the CaMV 35S promoter and the GUS coding sequence. Thus, a NcoI site was present in all PCR products. The PCR products were restricted with HindIII/NcoI and cloned into a pE:GUS vector to replace the E promoter through the same set of restriction sites. The constructed plasmids containing the chimeric promoters labeled 1 through 6 in Table 2 were named p-1.0hBoxII−48CaMV:GUS, p-1.5hBoxII−53CaMV:GUS, p-3.0hBoxII−69CaMV:GUS, p-3.5hBoxII−74CaMV, p-5.0hBoxII−90CaMV:GUS, and p-5.5hBoxII−95CaMV:GUS, respectively. The controls for this set of plasmids were generated using primer sets 1.5h-53CaMV-c (SEQ ID NO:43)/GUS3′; −3.5h-74CaMV-c (SEQ ID NO:44)/GUS3′ and −5.5h-95CaMV-c (SEQ ID NO:45)/GUS3′, which products were cloned into pE:GUS with HindIII/NcoI to replace the E promoter. The derived plasmids/constructs were named p-53CaMV:GUS, p-74CaMV:GUS and p-95CaMV:GUS, respectively.
The foregoing constructs were then transfected into non-transgenic BY-2 protoplasts, and the resulting GUS activity determined.

The next data set relates to pBII-48Ca::GUS. The data set is described as follows: Transactivation of pBII-48Ca::GUS by RF2a and RF2a mutants in BY-2 protoplasts. To be noted: co-transfected with pBII-48Ca::GUS, 24 hours after electroporation, normalized with GFP. In kind it is cell-based, tobacco. The protocol: The relative activity of RF2a and the RF2a mutants (described in Example 8) was then measured. First, a chimeric promoter was developed with a single copy of the Box II element fused to the 5′ end of a minimal CaMV 35S promoter comprising nucleotides −48 to +8 (SEQ ID NO:66). The chimeric promoter was ligated to the uidA coding sequence to create the reporter pBII-48Ca::GUS.
To analyze the function of the several domains of RF2a, effectors were created by inserting coding sequences of RF2a or the mutants of RF2a (described in Example 8) downstream of the enhanced CaMV 35S promoter in the pMON999 vector (a gift from Monsanto Company, St. Louis, Mo.). The resultant constructs, p35S::RF2a, p35S::RF2a-ΔP, p35S::RF2a-ΔQ, p35S::RF2a-ΔPΔA, p35S::RF2a-ΔPΔQ and p35S::RF2a-3Δ, were co-transfected into BY-2 protoplasts with pBII-48Ca::GUS (FIG. 17(A)). Plasmid pCat-GFP, in which the GFP gene was driven by CaMV 35S promoter, was co-introduced to serve as an internal control. The following describes, in greater detail, the construction of these vectors and the methods employed in transfecting the same into BY-2 protoplasts.
Plasmids for protoplast transfection—The coding sequences for mutants of RF2a were released from pET28a-derived plasmids and cloned into the plant expression vector pMON999 (a gift from Monsanto Company, St. Louis, Mo.) to place each gene downstream of an enhanced CaMV 35S promoter, followed by a nopaline synthase terminator sequence. The resulting effector constructs were named p35S::RF2a, p35S::RF2a-ΔP, p35S::RF2a-ΔQ, p35S::RF2a-ΔPΔA, p35S::RF2a-ΔPΔQ and p35S::RF2a-3Δ. The reporter gene construct, pBII-48Ca::GUS, was built using PCR to introduce the Box II element into a minimal CaMV 35S promoter comprising nucleotides −48 to +8 with primers BII-48Ca 5′ (SEQ ID NO:53) (which contained the Box II element) and GUS 3′ (SEQ ID NO:36) using a p35S:GUS plasmid as template. The PCR product was restricted with HindIII and NcoI, and the resulting fragment was inserted into p35S::GUS to replace the original 35S promoter.
Transfection of tobacco BY-2 protoplasts—The protoplasts were isolated from tobacco cell line BY-2 as described by Watanabe et al. (1987). Approximately one million protoplasts were transfected by electroporation with 20 μg of effector construct DNA, 15 μg of herring sperm DNA, 2.5 μg of reporter gene construct DNA, and 15 μg of pCat-GFP DNA. In samples with reporter gene alone, the total amount of DNA was adjusted by adding 20 μg of herring sperm carrier DNA. The electroporation parameters used were 300 V and 250 microfarads with the Bio-Rad electroporation system (Bio-Rad Laboratories, Hercules, Calif.). Protoplast samples were cultured in Murashige and Skoog medium with 0.4 M mannitol, pH 5.8, at 28° C. The protoplasts were collected 24 hours after electroporation.

In the next data set the test system is Box IIm1 element. The data set is described as follows: Electrophoretic mobility shift assay. The class given is binding. To be noted: 100 ng purified protein, 32P-labeled Box IIm1 DNA probe. On the procedure:
The purified mutant proteins were then analyzed by SDS-PAGE to confirm that each protein was its expected size (FIG. 16(B)). To confirm that each of the mutant proteins bind to the DNA target, i.e., the Box II element and/or its operational derivatives, gel mobility shift assays were carried out with the purified recombinant proteins (FIG. 16(C)). The electrophoretic mobility shift assays were carried out essentially as described in Yin and Beachy (1995). 100 ng of proteins purified from the transformed E. coli were incubated with ^32P-labeled Box IIm1 DNA probe followed by electrophoresis in a 5% acrylamide gel (Yin et al., 1997) (FIG. 16(C)).
(In general: Mobility shift assays separate free from complexed probe on a gel.)

The subject of data set [2] is Nicotiana tabacum cv. Xanthi NN. The data set is described as follows: Phenotype of transgenic tobacco plants overexpressing RF2a or RF2a mutants. In kind it is in vivo. As to conditions: CaMV 35S promoter driven, T1 generation, greenhouse. The text has this:
(Yin et al., 1997; Petruccelli et al., 2001). […] Fifteen or more independent transgenic tobacco lines were developed with the constructs described below through Agrobacterium-mediated transformation.
Plasmids for Agrobacterium-mediated transformation—The fusion genes described above relating to the plant expression constructs comprising RF2a deletion mutants were released from pMON999-derived plasmids using NotI (blunted) and cloned into the binary vector pGA-E::GUS (Petruccelli et al., 2001) using the blunt HindIII site (downstream of a CaMV 35S promoter sequence). The final plasmids were named pGA-E::GUS/P-35S::ΔP, pGA-E::GUS/P-35S::ΔQ, pGA-E::GUS/P-35S::ΔPΔA and pGA-E::GUS/P-35S::ΔPΔQ. A plasmid encoding full-length RF2a, p35S::RF2a, was also constructed using the methods described herein.
Tobacco transformation—the plasmids described above were introduced into Agrobacterium tumefaciens strain LBA4404 and used for tobacco transformation. Leaf discs from Nicotiana tabacum cv. Xanthi NN were transformed with the various plasmids following the protocol of Horsch et al. (1988). At least 15 independent transgenic lines were produced with each gene construct. Transgenic plants were self-fertilized, and T1 seeds were collected. The T1 seeds were germinated on Murashige and Skoog medium (Murashige and Skoog, 1962) with kanamycin (100 mg/L) selection, and Kan^r seedlings were grown in a greenhouse for observation.
The phenotype caused by 35S::RF2a-ΔPΔA was similar to, but less severe than, the phenotype caused by 35S::RF2a-3Δ. […] (FIG. 19(C)).

On to “p-1.5hBox II−53CaMV: Box II fused to CaMV 35S promoter, 7 nucleotides from TATA box plus 1.5 turns (DNA TGATCAAAGCTTCCAGTGTGCCCCTGGATCCTTCGCAAGACCCT; listed as DNA, chemistry not given here)”, for which the “stimulation of gene expression versus the construct without Box II” value in data set [1] was “much less or no stimulation of gene expression”.

Take “p-3.5hBox II−74CaMV: Box II fused to CaMV 35S promoter, 7 nucleotides from TATA box plus 3.5 turns (DNA TGATCAAAGCTTCCAGTGTGCCCCTGGGGGATGACGCACAATCC; listed as DNA, chemistry not given here)”: the “stimulation of gene expression versus the construct without Box II” value in data set [1] is “much less or no stimulation of gene expression”.

Consider “p-5.5hBox II−95CaMV: Box II fused to CaMV 35S promoter, 7 nucleotides from TATA box plus 5.5 turns (DNA TGATCAAAGCTTCCAGTGTGCCCCTGGGTGATATCTCCACTGAC; listed as DNA, chemistry not given here)”, for which the “stimulation of gene expression versus the construct without Box II” value in data set [1] is “much less or no stimulation of gene expression”. On to “p5.0hBoxII−90CaMV: Box II fused to CaMV 35S promoter, 7 nucleotides from TATA box plus 5.0 turns (DNA TGATCAAAGCTTCCAGTGTGCCCCTGGATCTCCACTGACGTAAG; listed as DNA, chemistry not given here)”, for which, in data set [1], the “increase in expression level above the construct without Box II” value was determined as 4.7 fold. The same measure, in the same setting: with “p1.0hBoxII−48CaMV: Box II fused to CaMV 35S promoter, 7 nucleotides from TATA box plus 1 turn of DNA helix (DNA TGATCAAAGCTTCCAGTGTGCCCCTGGTCGCAAGACCCTTCCTC; listed as DNA, chemistry not given here)” the figure was 6.9 fold.

B1: RF2a-ΔQ: RF2a mutant, glutamine-rich domain removed, SEQ ID NO:69 (protein)
chain: MNREKSPIPGDGGDGLPPQATRRAGPPAAAAAAEYDISRMPDFPTRNPGHRRAHSEILSLPEDLDLCAAGGGDGPSLSDENDEELFSMFLDVEKLNSTCGASSEAEAESSSAAAHGARPKHQHSLSMDESMSIKAEELVGASPGTEGMSSAEAKKAVSAVKLAELALVDPKRAKRIWANRQSAARSKERKMRYIAELERKVQTLQTEATTLSAQLALLQRDTSGLTTENSELKLRLQTMEQQVHLQDALNDTLKSEVQRLKVATGQMANGGGMMMNFGGMPHQ
modifications: This sequence was artificially derived and/or created by the inventors.
With B1, in the data set on pBII-48Ca::GUS, the “activation function (relative GUS activity)” value is “greater than that of full-length RF2a”. Also, in the data set on Box IIm1 element, the “binding in gel mobility shift assay” value is “bind to the Box IIm1 element”. Besides, the “phenotype of transgenic tobacco plants” value in data set [2] is listed as “did not exhibit abnormal phenotypes”.

B2: RF2a-ΔP: RF2a mutant, proline-rich domain removed, SEQ ID NO:68 (protein)
chain: MGHRRAHSEILSLPEDLDLCAAGGGDGPSLSDENDEELFSMFLDVEKLNSTCGASSEAEAESSSAAAHGARPKHQHSLSMDESMSIAEELVGASPGTEGMSSAEAKKAVSAVKLAELALVDPKRAKRIWANRQSAARSKERKMRYIAELERKVQTLQTEATTLSAQLALLQRDTSGLTTENSELKLRLQTMEQQVHLQDALNDTLKSEVQRLKVATGQMANGGGMMMNFGGMPHQFGGNQQMFQNNQAMQSMLAAHQLQQLQLHPQAQQQQVLHPQHQQQQPLHPLQAQQLQQAARDLKMKSPMGGQSQWGDGKSGSSGN
modifications: This sequence was artificially derived and/or created by the inventors.
B2: the “activation function (relative GUS activity)” value with pBII-48Ca::GUS is “greater than that of full-length RF2a”. Further, the “binding in gel mobility shift assay” value in the data set on Box IIm1 element is recorded as “bind to the Box IIm1 element”. For the same molecule, the “phenotype of transgenic tobacco plants” value in data set [2] is reported as “did not exhibit abnormal phenotypes”.
